T1: T cell receptor (TCR) Vγ9 (TRGV9) (human, UniProt Q99603 21-122)
T1 chain (looked up): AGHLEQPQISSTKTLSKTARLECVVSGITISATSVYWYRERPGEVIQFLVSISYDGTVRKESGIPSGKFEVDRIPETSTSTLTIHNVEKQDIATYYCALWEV

T2: T cell receptor (TCR) Vγ9 (TRGV9) (human, UniProt Q99603 21-122)
T2 chain (looked up): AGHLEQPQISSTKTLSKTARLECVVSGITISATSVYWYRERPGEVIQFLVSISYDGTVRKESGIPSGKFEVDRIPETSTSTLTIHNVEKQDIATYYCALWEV


Target: T1, T cell receptor (TCR) Vγ9 (TRGV9)
Assay: cell-based or functional assay
For CD25+ (Vg9+ cells), flow staining in this document: test concentration or dose not given here.
For CD71+ (Vg9+ cells), flow staining in this document: test concentration or dose not given here.
For Granzyme B, Luminex (supernatant) in this document: unit not given here.
For IL6, Luminex (supernatant) in this document: unit not given here.
For TNFα, Luminex (supernatant) in this document: unit not given here.

Row | CD25+ (Vg9+ cells), flow staining [%] | CD71+ (Vg9+ cells), flow staining [%] | Granzyme B, Luminex (supernatant) | IFNγ, Luminex (supernatant) | IL6, Luminex (supernatant) | TNFα, Luminex (supernatant) | Vg9 T cell %, flow staining [%] | Binder
1 | 26.4 | 89.9 | 2300 | 1100 | 610 | 3740 | 3.4 | VG9B384 (antibody, human IgG1, lambda, V domains shown) VH: QVQLQESGPALVKPTQTLTLTCTFSGFSLSSSGMCVSWIRQPPGKALEWLTLIDWFDDKYYSTSLKTRLTISKDTSKNQVVLTMTNMDPVDTATYYCARIRGTGAYYYGLDVWGQGTMVTVSS VL: SYELMQPPSVSVSPGQTASITCSGNELGDKYASWYQQQPGQSPVLVIYQDNKRPSGIPERFSGSNSGNTATLTISGTQAMDEADYYCQAWDSSKVVFGGGTKLTVLG
2 | 45.5 | 99.1 | 4500 | 2370 | 433 | 376 | 9.5 | VG9B402 (antibody, human IgG1, kappa) heavy: not shown light: DIQMTQSPSSVSASVGDRVTITCRASQGINSWLAWYQQKPGNAPKLLIYAASSLQSGVPSRFSGIGSGTDFIFTISSLQPEDFASYYCQQANSFPWTFGQGTKVDIKRTVAAPSVFIFPPSDEQLKSGTASVVCLLNNFYPREAKVQWKVDNALQSGNSQESVTEQDSKDSTYSLSSTLTLSKADYEKHKVYACEVTHQGLSSPVTKSFNRGEC
3 | 28 | 95.2 | 1990 | 749 | 240 | 85 | 14 | VG9B33 (antibody, human IgG1, kappa, V domains shown) VH: EVQLVESGGGLVKPGGSLRLSCAASGFTFSSYNMNWVRQAPGKGLEWVSSISTSSSYIYYADSVKGRFTISRDNAKNSLYLQMNGLRAEDTAVYYCARDTSVTKYPDTFDIWGQGTMVTVSS VL: DIVMTQSPSSLSASVGDRVTITCRASQDINNYLAWFQQKPGKVPNLLIYGASTLQSGVPSRFTGSGSGTDFTLTISSLQPEDVATYYCQKYNSAPFTFGPGTKVDIKR
4 | 42.4 | 93.6 | 3370 | 1380 | 400 | 7320 | 5.2 | VG9B191 (antibody, human IgG1, lambda, V domains shown) VH: EVQLVQSGGGLVKPGGSLRLSCAASGFTFSRYSMNWVRQAPGKGLEGVSSISSSSSYIYYADSVKGRFTISRDNAKNSLYLQMNSLRAEDTAVYYCARDGPTVNWDYYFDLWGRGTLVTVSS VL: QSVLTQPPSVSAAPGQKVTISCSGSSSNIGNNYVSWYQQLPGTAPKLLIYDNNKRPSGIPDRFSGSKSGTSATLGITGLQTGDEADYYCGTWDSSLSTSVVFGGGTKLTVLG
5 | 45.4 | 98.8 | 3030 | 1150 | 587 | 198 | 14.4 | VG9B44 (antibody, human IgG1, kappa, V domains shown) VH: QVQLQQSGPGLVKPSQTLSLTCAISGDSVSSNSAAWNWIRQSPSRGLEWLGRTYYRSKWYNDYPISVKSRISINPDTSKNQFSLQLNSVTPEDTAVYYCARESGSYYTDGFDIWGQGTMVTVSS VL: DIQMTQSPSFLSASVGDRVTITCRASQGISSYLAWYQQKPGKAPKLLIYAASTLQSGVPSRFSGSGSGTEFTLTISSLQPEDFATYYCQEFNSYPYTFGQGTKLEIKR
6 | 44.9 | 98.8 | 5800 | 2830 | 1960 | 229 | 13.3 | VG9B413 (antibody, human IgG1, kappa) heavy: not shown light: EIVMTQSPGTLSLSPGDRATLSCRASQSVASSYLAWYQQKPGQSPRLLIYGASSRATGIPDRFSGSGSGTDFTLTISRLEPEDFAVYYCQQYGSSPPYTFGQGTKVEIKRTVAAPSVFIFPPSDEQLKSGTASVVCLLNNFYPREAKVQWKVDNALQSGNSQESVTEQDSKDSTYSLSSTLTLSKADYEKHKVYACEVTHQGLSSPVTKSFNRGEC
7 | 36.2 | 97.5 | 3020 | 1390 | 175 | 102 | 7.2 | VG9B403 (antibody, human IgG1, kappa) heavy: not shown light: DIVMTQSPGTLSLSPGDRATLSCRASQSVASSYLAWYQQKPGQSPRLLIYGASSRATGIPDRFSGSGSGTDFTLTISRLEPEDFAVYYCQQYGSSPPYTFGQGTKVEIKRTVAAPSVFIFPPSDEQLKSGTASVVCLLNNFYPREAKVQWKVDNALQSGNSQESVTEQDSKDSTYSLSSTLTLSKADYEKHKVYACEVTHQGLSSPVTKSFNRGEC
8 | 8.7 | 77.3 | 36 | 44 | 8 | 30 | 3.6 | VG9B137 (antibody, human IgG1, kappa, V domains shown) VH: EVQLVESGGGLVKPGGSLRLSCAAFGITFSSYSMDWVRQAPGRGLEWVSSIGSSSSYIFYADSVKGRFTISRDNAKNSLYLQMNSLRAEDTAVYYCATSYSWNYGGAFDIWGQGTMVTVSS VL: not shown
9 | 28.5 | 87.4 | 2550 | 972 | 365 | 144 | 14 | VG9B67 (antibody, human IgG1, kappa, V domains shown) VH: EVQLVESGGGLVKPGGSLRLSCAASGFTFSSYTMNWVRQAPGKGLEWVSSISSSSSYIDYAESVKGRFTISRDNAKNSLYLQMNSLRAEDTAVYYCARDGDILATIRGSFDYWGQGTTVTVSS VL: DIVMTQTPLSLPVTPGEPASISCRSSQSLLDSDAGNTYLDWYLQKPGQSPQLLIYTLSYRASGVPDRFSGSGSGTDFTLKISRVEAEDVAIYYCMQRIEFPITFGQGTKVEIKR
10 | 37.3 | 96.5 | 2450 | 1170 | 348 | 709 | 11.2 | VG9B127 (antibody, human IgG1, kappa, V domains shown) VH: QVQLVESGGGLVKPGGSLRLSCTASGFTFGAYTMNWVRQAPGKGLEWVSSISSSSSYIDFAESVKGRFTISRDNAKNSLYLQMISLRAEDTAVYYCARDGDIVSTIRGSFDYWGQGALVTVSS VL: EIVMTQSPLSLPVTPGEPASISCRSSQSLLDSDDGNTYLDWYLQKPGQSPQLLIYTLSYRASGVPDRFSGSGSGTDFTLKISRVEAEDVGIYYCMQRIEFPITFGQGTKVEIKR
11 | 9.7 | 70.3 | 481 | 57 | 54 | 329 | 2.7 | VG9B162 (antibody, human IgG1, lambda, V domains shown) VH: QVQLVESGAEVTKPGASVKVSCKASGYTFTGDYMHWVRQAPGQGLEWMGWINPNSGYTNYAQKFQGRVTMTRDTSISTAYMELSRLRSDDTAVYYCAREGDAFDVWGQGTMVTVSS VL: QLVLTQSSSASGSPGQSVTISCTGTSSDVGGYNYVSWYQQHPGKAPKLMIYEVSKRPSGVPDRFSGSKSGNTASLTVSGLQAEDEADYYCNSYAGSNNFEVFGGGTKLTVLG
12 | 29.1 | 89.4 | 3890 | 2580 | 607 | 188 | 7.8 | VG9B36 (antibody, human IgG1, kappa, V domains shown) VH: QVQLVESGGGLVKPGGSLRLSCASSGFTFSSYGMYWVRQAPGKGLEWVSSISTGSSYIYYADSVKGRFTISRDNAKNSLYLQMNSLRAEDTAVYYCARDKGLAVTGYIMDVWGQGTTVTVSS VL: EIVLTQSPSSLSASVGDRVTITCQASQDISNYLNWYQQKPGKAPKLLIYDASNLETGVPSRFSGSGSGTDFTFTISSLQPEDIAIYYCQQYDNLPMYTFGQGTKVEIKR

Target: T2, T cell receptor (TCR) Vγ9 (TRGV9)
Assay: cell-based or functional assay

Row | CD25+ (Vg9+ cells), flow staining [%] | CD71+ (Vg9+ cells), flow staining [%] | Granzyme B, Luminex (supernatant) | IFNγ, Luminex (supernatant) | IL6, Luminex (supernatant) | TNFα, Luminex (supernatant) | Vg9 T cell %, flow staining [%] | Binder
13 | 26 | 87.4 | 965 | 364 | 100 | 2110 | 4.1 | VG9B463 (antibody, human IgG1, lambda, V domains shown) VH: EVQLVESGGGLVKPGGSLRLSCSASGFTFSNYDMNWVRQAPGKGLEWVSSISSSSSYIYYADSVKGRFTISRDNAKNSLYLQMNSLRAEDTAVYHCARDVGVTTDYYYYGMDVWGQGTTVTVSS VL: QPVLTQSSSASGTPGQRVTISCSGSSSNIGSNTVNWYQQFPGTAPKLLIYTNTQRPSGVPDRFSGSKSGTLVSLAISGLQSEDEADYYCAAWDDSLNAWVFGGGTKLTVLG
14 | 29.9 | 98.5 | 3700 | 1580 | 440 | 173 | 7.8 | VG9B469 (antibody, human IgG1, kappa, V domains shown) VH: EVQLVESGGGLVKPGGSLRLSCAASGFTFSHYDMNWVRQAPGKGLEWVSSISSSSSYIFYADSVKGRFTISRDNAKNSLLLQMNSLRAEDTAVYHCARDRGVGDTSDYYSFGLDVWGQGTMVTVSS VL: DIVMTQSPGTLSLSPGERATLSCRASQNVSSTYLAWYQQKPGQAPRLLIYGACSRATGIPDRFSGSGSGTDFTLTISRLEPEDYAVYYCQQYGSSPPYTFGRGTKLEIKR
15 | 23 | 91.2 | 1100 | 324 | 199 | 66 | 3.6 | VG9B198 (antibody, human IgG1, lambda, V domains shown) VH: QVQLQESGPGLVKPSETLSLTCTVSGDSISSIYWSWIRQSAGKGLEWIGRIYTTDITNYNPSLKSRVTMSADTSKNQLSLKLTSVTAADTAVYYCAKNGYSYGGFNYWGQGTLVTVSS VL: QSVLTQPPSVSGAPGQRVTISCTGSSSNIGAGYDVHWYQRLPGTAPKLLIYGDSYRPSGVPDRFSGSKSGTSASLAITGLQAEDEADYYCQSYDSSLSVVVFGGGTKLTVLG

— US20220125947A1 (published 2022)
